The assay deals with NMDA receptor (NMDA receptor/2B subunit and NMDA receptor I) expressed in Xenopus oocytes (human) (UniProt Q13224). Nature of the assay: cell-based or functional assay.

Chain of Protein-X (novel PSD) expressed from injected RNA in Xenopus oocytes (Q5T2T1 whole entry K322R): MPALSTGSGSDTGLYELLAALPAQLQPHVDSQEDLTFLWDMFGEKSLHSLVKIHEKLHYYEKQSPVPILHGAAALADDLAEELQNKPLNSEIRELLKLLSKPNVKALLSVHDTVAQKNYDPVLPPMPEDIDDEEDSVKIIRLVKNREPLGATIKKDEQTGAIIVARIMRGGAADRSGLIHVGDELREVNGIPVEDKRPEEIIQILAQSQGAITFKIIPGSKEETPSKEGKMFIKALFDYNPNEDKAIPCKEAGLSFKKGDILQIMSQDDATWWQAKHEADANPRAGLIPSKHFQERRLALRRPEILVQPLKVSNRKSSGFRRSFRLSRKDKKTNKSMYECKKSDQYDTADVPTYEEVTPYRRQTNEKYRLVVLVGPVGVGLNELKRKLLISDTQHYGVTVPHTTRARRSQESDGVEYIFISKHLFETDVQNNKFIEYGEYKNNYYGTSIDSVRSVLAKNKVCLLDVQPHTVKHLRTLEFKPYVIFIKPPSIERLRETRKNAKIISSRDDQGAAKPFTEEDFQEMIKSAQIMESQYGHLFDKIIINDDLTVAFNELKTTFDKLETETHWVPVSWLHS

For “Protein-X (novel PSD) expressed from injected RNA in Xenopus oocytes (from UniProt Q5T2T1 1-576)”, the Current variation (µA), Average amounted to 0.55 µA; the Current variation (µA), Standard deviation was found to be 0.15 µA; the Current variation (µA), oocyte #1, 1000 µM Glu + 10 µM Gly came out at 0.6 µA; the Current variation (µA), oocyte #2, 1000 µM Glu + 10 µM Gly was found to be 0.81 µA. The Current variation (µA), oocyte #3, 1000 µM Glu + 10 µM Gly was 0.38 µA; the Current variation (µA), oocyte #4, 1000 µM Glu + 10 µM Gly stood at 0.57 µA; the Current variation (µA), oocyte #5, 1000 µM Glu + 10 µM Gly amounted to 0.41 µA; the Current variation (µA), oocyte #6, 1000 µM Glu + 10 µM Gly amounted to 0.54 µA. Besides, the current response to the ligand stimulation, against oocytes expressing PSD-95 with the NMDA receptor was 1.5 times.
